We go through 2 molecules from PMC6906530, “Structural studies of the MMP-3 interaction with triple-helical collagen introduce new roles for the enzyme in tissue remodelling” (Scientific Reports, 2019).

Data set [1] addresses collagen I (Guinea pig dermis) (Guinea pig).
The test system of a further data set is collagen I. The conditions noted are these: 10:1 molar excess over collagen; cited from earlier work. The source says: In both models of collagen fibril assembly, a number of MMP-3 binding sites are concealed, consistent with the observed inhibition of fibrillogenesis in the presence of MMP-3 (Fig. 4g).

Sequence of collagen I (Guinea pig dermis) (Guinea pig) (main, as listed by the source, chain 1 of 2): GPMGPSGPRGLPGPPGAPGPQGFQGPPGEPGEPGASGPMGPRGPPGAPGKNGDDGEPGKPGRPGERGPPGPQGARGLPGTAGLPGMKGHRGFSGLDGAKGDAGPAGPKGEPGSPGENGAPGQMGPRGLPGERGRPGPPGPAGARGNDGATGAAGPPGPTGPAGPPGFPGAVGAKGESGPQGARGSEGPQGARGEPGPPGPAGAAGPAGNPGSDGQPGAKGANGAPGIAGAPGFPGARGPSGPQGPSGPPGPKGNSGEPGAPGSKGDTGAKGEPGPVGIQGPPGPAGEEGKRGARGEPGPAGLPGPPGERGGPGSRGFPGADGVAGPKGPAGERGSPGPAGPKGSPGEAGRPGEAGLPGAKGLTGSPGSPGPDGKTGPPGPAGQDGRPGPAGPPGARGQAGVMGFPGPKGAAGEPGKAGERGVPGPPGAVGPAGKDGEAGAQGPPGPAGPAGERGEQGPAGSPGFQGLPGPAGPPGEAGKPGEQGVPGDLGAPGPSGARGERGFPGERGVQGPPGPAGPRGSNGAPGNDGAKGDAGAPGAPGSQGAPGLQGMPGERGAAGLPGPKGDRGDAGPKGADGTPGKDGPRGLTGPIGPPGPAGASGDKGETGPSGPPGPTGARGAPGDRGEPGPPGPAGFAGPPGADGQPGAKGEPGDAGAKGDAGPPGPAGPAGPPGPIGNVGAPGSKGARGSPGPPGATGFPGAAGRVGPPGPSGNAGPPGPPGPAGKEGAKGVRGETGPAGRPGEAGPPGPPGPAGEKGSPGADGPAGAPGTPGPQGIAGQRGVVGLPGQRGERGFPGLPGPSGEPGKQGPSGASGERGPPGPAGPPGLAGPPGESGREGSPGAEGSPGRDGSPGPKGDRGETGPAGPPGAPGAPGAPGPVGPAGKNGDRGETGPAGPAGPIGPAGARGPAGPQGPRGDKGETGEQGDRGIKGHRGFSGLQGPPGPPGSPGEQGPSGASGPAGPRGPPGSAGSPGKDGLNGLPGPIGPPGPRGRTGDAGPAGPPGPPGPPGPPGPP
Sequence of collagen I (Guinea pig dermis) (Guinea pig) (partner, as listed by the source, chain 2 of 2): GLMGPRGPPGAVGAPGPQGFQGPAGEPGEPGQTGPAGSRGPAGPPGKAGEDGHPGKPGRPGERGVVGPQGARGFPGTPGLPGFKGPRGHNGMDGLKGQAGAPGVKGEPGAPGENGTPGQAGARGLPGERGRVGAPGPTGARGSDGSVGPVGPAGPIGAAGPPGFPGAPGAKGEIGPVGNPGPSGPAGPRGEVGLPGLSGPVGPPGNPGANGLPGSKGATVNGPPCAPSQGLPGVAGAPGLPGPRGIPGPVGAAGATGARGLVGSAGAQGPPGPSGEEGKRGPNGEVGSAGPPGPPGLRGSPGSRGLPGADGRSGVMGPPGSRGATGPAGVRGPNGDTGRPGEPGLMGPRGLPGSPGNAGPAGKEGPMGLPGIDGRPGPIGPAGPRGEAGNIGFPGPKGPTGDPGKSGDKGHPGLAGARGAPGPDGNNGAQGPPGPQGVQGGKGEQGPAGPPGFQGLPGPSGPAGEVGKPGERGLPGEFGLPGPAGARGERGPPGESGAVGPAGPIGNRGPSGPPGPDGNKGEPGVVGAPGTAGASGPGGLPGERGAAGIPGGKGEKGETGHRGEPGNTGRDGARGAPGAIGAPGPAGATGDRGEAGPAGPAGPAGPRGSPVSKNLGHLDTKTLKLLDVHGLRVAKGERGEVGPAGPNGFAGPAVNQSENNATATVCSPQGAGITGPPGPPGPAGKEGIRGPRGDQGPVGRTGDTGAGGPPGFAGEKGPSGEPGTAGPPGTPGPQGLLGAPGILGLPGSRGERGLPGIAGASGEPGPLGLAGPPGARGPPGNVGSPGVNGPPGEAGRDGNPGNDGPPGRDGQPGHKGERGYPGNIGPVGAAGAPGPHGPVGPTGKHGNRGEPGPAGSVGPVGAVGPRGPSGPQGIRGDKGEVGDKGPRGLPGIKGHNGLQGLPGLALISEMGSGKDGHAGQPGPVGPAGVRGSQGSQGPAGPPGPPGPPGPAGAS

Take “mature MMP-3(E200A) (from UniProt P08254 100-477) (enzyme)”: in data set [1], the collagen I fibrillogenesis by turbidity at 500 nm, 37 °C, 1 μM fibrillogenesis-competent collagen I (with telopeptides) with increasing MMP-3(E200A); delay at a ratio of 0.5:1 to collagen I is 50 min.

B1: SPARC: matricellular calcium binding protein, secreted protein acidic and rich in cysteine (protein, UniProt P09486 18-303, looked up)
SPARC: APQQEALPDETEVVEETVAEVTEVSVGANPVQVEVGEFDDGAEETEEEVVAENPCQNHHCKHGKVCELDENNTPMCVCQDPTSCPAPIGEFEKVCSNDNKTFDSSCHFFATKCTLEGTKKGHKLHLDYIGPCKYIPPCLDSELTEFPLRMRDWLKNVLVTLYERDEDNNLLTEKQKLRVKKIHENEKRLEAGDHPVELLARDFEKNYNMYIFPVHWQFGQLDQHPIDGYLSHTELAPLRAPLIPMEHCTTRFFETCDLDNDKYIALDEWAGCFGIKQKDIDKDLVI
Consider B1, for which the “Delay of collagen fibrillogenesis relative to MMP-3(E200A)” value in the data set on collagen I is recorded as “comparably”.
